US20040038369A1, “Airway-specific trypsin-like enzymes and method of using the same” (priority 2000, published 2004)

B1: Rabbit: rabbit AST, SEQ ID NO: 34 and 35 (protein, listed as Oryctolagus cuniculus)
chain: MYRPARGSSTSRFLNPYVICFIVVAVVVILAVIVALLIHFLAFDKKSCFFHSSFQIRNVQYSDQLNSPATQEYRLLSERIESMISQTLQGSNLRNQFIRAHVVKLRQDSNSVIADVVMKFRVSRNNNGDAMKRRVQDVLQQMLNNSGSLEINPSTTVTEITGQDTETIFTQQCGARPDLITLSEERIIGGTQAEEGDWPWQVSLQPNNAHHCGGILISNTWILTAAHCFRSYSDPRQWTATFGISTAVSRQRMRIRTILVHNNYRSATHENDIAAVQLEGAITFTRNIHSVCLPEATQNITPGSSAYVTGWGSLEYGGNTVTYLQQGRVRIISNEVCNAPASYNGAVLPTMVCAGLSQGGVDACQGDSGGPLVQEDSRRLWFVVGIVSWGYQCGLPDKPGVYTRVTAYRDWIREQTGI
B2: Dog: dog AST, SEQ ID NO: 30 and 31 (protein, listed as Canis familiaris)
chain: MYRPARVPSGSRFLNPYVVCFVVVAGVVILAVTIALLIHFLAFDQKSYFYHSSFQILNVQYSNQLNSPGTQEYRTLSGRIESLITKTFRESNLRNQFIRAHVVKLRQEGNGVIADVVMKFKFTRNNNGALMKSRIKSVLHQMLNNSGNLEISPSTEITSITDQDTVNIFTEGCGARPDLITLSEERILGGNKAEEGDWPWQVSLQKNNVHHCGGVLISSMWILSAAHCFRSQSNPRQWTAIFGASIAFPKQKRRVRTILIHNNYNPATHENDIAAIQLEGGINFTKNIHRVCLPEATQNIPPGSSAYVTGWGSQEYGGNTVSDLQQARVRIISNDVCNAPTSYNGAVRPGMLCAGLPQGGVDACRGDSGGPLVQEDSRRLWFLVGIVSWGDRCGLPDKPGVYTRVTAYRDWITEKTGV
B3: Pig: pig AST, SEQ ID NO: 26 and 27 (protein, listed as Sus scrofa)
chain: MYRPATVRSASRSLNPYTVCFIVVAVVVILAVTIALLVHFLAFDQKAYFYHSRFQILNVEYSDELNSPATQKYRSLSGRIESMITRTFKESNLRNQFVRAHVVKLRQSGSGVIADIVMKFKFTRYNNGASMKSRIESVLRQMLNNTGNLVMNPSTELTPITDQDTVNIFTQGCGARPDLITLSEERIIGGTKAEEGDWPWQVSLQRNNLHHCGGVLISNRWILTAAHCFRSYSDPRQWTVTFGISTIFPKDRIGVRNILIHNNYNPETHENDIALVQLNREVAFTKNIHSVCLPEATQTIPPGSTAYVTGWGSQRYSGNTVPDLEQVRVNIISNDVCNSPAGYNGDVLPGMLCAGLPEGGADACQGDSGGPLQQEDSRRLWFLVGIVSWGYQCGLPDKPGVYTRVTAYRDWIAQQTGI
B4: Monkey: monkey AST, SEQ ID NO: 28 and 29, expressed in 293 EBNA cells (protein, listed as Macaca fascicularis)
chain: MYRPARVPSTSRFLNPYVVCFIVVAGVVILAVTIALLVYFLAFDQKSYFYRSSFQLLNVEYNSQLNSPATQEYRTLSGRIESLITRTFKESNLRNQFMRAHVVKLSQDGSGVRADVVMKFRFTRNNNGASMKSRIESVLQQMLNNSGNLEINSSTEITSLTDQAAANWLINECGAGPDLITLSEQRIIGGTEAEEGSWPWQVSLRVNNAHHCGGSLISNTWILTAAHCFRSNSNPREWIATFGISTTNPRLRMRVRSILIHNNYISATHENDIALVRLENSVTFTRDIHSVCLPAATQNIPLGSTAYVTGWGAQEYAGSTVSELRQAQVRIISNDVCNAPYSYNGGILPGMLCAGVPQGGVDACQGDSGGPLVQEDSRRLWFLVGIVSWGDQCGLPDRPGVYTRVTTYRDWIRQRTGI
B5: Cattle: cattle AST, SEQ ID NO: 32 and 33 (protein, listed as Bos taurus)
chain: MYRPARVTSASRSLNPYLVFFVVVAVVVILAVIIGLLVYFLAFDQKSYFYQSSIQILGKQYSDELSSPATEKYRTLSGRIESMITKTFKESDLKNEFIKAHVVKLRQSGNNVIADIIMKFKFTRRINEASMKSRIESILRQMPNNSEDLNMNPTQVISITGQDTIQLFTRECGVRSDLITLSEERIIGGSKAEKGDWPWQVSLQWSSSHRCGGALISNRWILSAAHCFRSHSDPRQWIATFGTSTISPQLRVGVRNILIHDNYKPETHENDIALVQLDREVTFNRYIHTVCLPEANQAISAGSTAYVTGWGSQSYSGSTVSDLNQGRVNIISNTVCNTPAGYNGAVLSGMLCAGLPEGGVDACQGDSGGPLVQEDSRQHWFIVGIVSWGYQCGLPDKPGVYTRVTAYRDWITQQTGI

Experiment: Enzymatic activity of mammalian ASTs transiently expressed in 293 EBNA cells
Format: biochemical
Settings: for Cell lysate Fluorescence intensity ratio (Human:100): 293 EBNA cell lysate, three days after transfection
Procedure: A forward primer and a reverse primer were prepared on gene sequences encoding the N-terminal and C-terminal of each mammalian AST, and a cDNA encoding the full-length AST was prepared by a PCR amplification using the forward primer, the reverse primer, Pyrobest DNA polymerase (produced by Takara Shuzo Co.), and an airway cDNA as a template. On the other hand, a product obtained by cleaving pcDNA3 (produced by Invitrogen Corp.) with restriction enzymes NruI and KpnI, and the promoter domain of Elongation Factor-1a (EF-1 a) from human genome were amplified by a PCR using a forward primer: […] and a reverse primer: […]. The amplified fragment was cleaved with restriction enzymes NruI and KpnI, and then inserted into the above-described plasmid vector to construct the pEF9 expression vector having the promoter of the human EF-1α. The PCR-amplified ATS fragment was inserted into a multi-cloning site in the downstream of the human EF-1α promoter of the above-described pEF9 expression vector to prepare each animal AST expression plasmid. The base sequences were identified with an automatic sequencer.
Human fetal kidney-originated 293 EBNA cells (Invitrogen Corp.) were cultured in a 10 cm schale, and the about 5.8×10^6 cells were transfected with 28 μg of each expression plasmid prepared in (1) in 56 μL of LipofectAMINE 2000 (produced by GibcoBRL Corp.) according to an appended manual. Three days later, the cells were lysed and recovered in 5 mL of M-PER (produced by PIERCE Corp.) and then mixed with 5 mL of a buffer solution (50 mM Tris-HCl, 0.01% BSA, pH=8.6) for AST activity assay to give the cell lysate. The cell lysate was further diluted with the buffer solution for the AST activity assay ten times, and then supplied for the activity assay. 40 μL of the above-described assay sample was mixed with 20 μL of a synthetic substrate solution (a solution obtained by diluting a 10 mM Boc-Phe-Ser-Arg-MCA DMSO (dimethyl sulfoxide) solution with the buffer solution for the AST activity assay 50 times), and the increase of the fluorescence intensity per minute was assayed (fluorescence wavelength: 460 nm, excitation wavelength: 380 nm) to determine the enzymatic activity.

| Molecule | Cell lysate Fluorescence intensity ratio (Human:100) | Sup Fluorescence intensity ratio (Human:100) (293 EBNA, Sup) |
| --- | --- | --- |
| B1 | 30 | – |
| B2 | 40 | – |
| B3 | 92 | – |
| B4 | 250 | 150 |
| B5 | 16 | – |
